Results on two molecules are retold here after patent publication US20180194839A1 (Novartis, published 2018).

Where a chain is given by its changes, count along the chain named. Numbers in names are those of the source. Bounds are passed on as bounds.

Test [1] has as its target T1, recombinant human IL-4 (R&D Systems Cat#204-IL/CF) (human, UniProt P05112 25-153).
T1 construct: also called huIL-4
T1 sequence (looked up): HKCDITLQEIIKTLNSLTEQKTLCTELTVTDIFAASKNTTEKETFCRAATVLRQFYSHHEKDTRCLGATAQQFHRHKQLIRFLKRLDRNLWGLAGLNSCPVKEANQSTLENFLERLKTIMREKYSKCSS
Nature of the test: ELISA, coated cytokine. (In an ELISA, binding on a coated surface is turned into a signal by an enzyme label.)

Test [2] has as its target T2, recombinant human IL-8 (R&D Systems Cat#208-IL-010/CF) (human, UniProt P10145 28-99).
T2 construct: also called huIL-8
T2 sequence (looked up): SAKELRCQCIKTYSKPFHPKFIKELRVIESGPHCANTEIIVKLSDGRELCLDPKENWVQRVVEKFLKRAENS
Nature of the test: ELISA, coated cytokine.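 Also: antibodies incubated 3 h at room temperature on cytokine-coated plates, binding read out with alkaline phosphatase-conjugated anti-species IgG secondary antibodies.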

The target in test [3] is T3, recombinant human IL-13 (Novartis) (human, UniProt P35225 35-146, limits assumed).
T3 construct: also called huIL-13
T3 sequence (P35225 35-146 limits assumed): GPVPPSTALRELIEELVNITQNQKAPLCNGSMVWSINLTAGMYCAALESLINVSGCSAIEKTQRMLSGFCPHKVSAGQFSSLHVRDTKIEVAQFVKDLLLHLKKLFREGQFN
Nature of the test: ELISA, coated cytokine.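 Also: antibodies incubated 3 h at room temperature on cytokine-coated plates, binding read out with alkaline phosphatase-conjugated anti-species IgG secondary antibodies.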

The target in test [4] is T4, recombinant human IL-20 (Novartis) (human, UniProt Q9NYY1 25-176, limits assumed).
T4 construct: also called huIL-20
T4 sequence (looked up): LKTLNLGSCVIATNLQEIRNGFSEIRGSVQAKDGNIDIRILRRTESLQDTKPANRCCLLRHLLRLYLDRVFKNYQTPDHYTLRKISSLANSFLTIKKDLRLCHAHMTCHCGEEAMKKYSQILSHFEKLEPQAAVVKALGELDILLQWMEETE
Nature of the test: ELISA, coated cytokine.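 Also: antibodies incubated 3 h at room temperature on cytokine-coated plates, binding read out with alkaline phosphatase-conjugated anti-species IgG secondary antibodies.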

In test [5] the target is T5, recombinant human TNFα (Novartis) (human, UniProt P01375 77-233).
T5 construct: also called huTNFα
T5 sequence (P01375 77-233 limits assumed): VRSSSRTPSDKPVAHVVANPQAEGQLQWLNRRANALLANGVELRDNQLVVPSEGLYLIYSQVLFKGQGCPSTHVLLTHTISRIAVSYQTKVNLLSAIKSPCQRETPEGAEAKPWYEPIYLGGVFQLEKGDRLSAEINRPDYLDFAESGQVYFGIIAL
Nature of the test: ELISA, coated cytokine.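 Also: antibodies incubated 3 h at room temperature on cytokine-coated plates, binding read out with alkaline phosphatase-conjugated anti-species IgG secondary antibodies.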

For test [6], the target named is T6, recombinant human EGF (Sigma Cat#E9644) (human, UniProt P01133 971-1023).
T6 construct: also called huEGF
T6 sequence (P01133 971-1023 limits assumed): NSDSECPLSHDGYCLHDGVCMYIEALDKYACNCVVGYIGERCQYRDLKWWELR
Nature of the test: ELISA, coated cytokine.

The target in test [7] is T7, recombinant mouse IL-2 (R&D Systems 402-ML-020/CF) (mouse, UniProt P04351 21-169).
T7 construct: also called mIL-2
T7 sequence (looked up): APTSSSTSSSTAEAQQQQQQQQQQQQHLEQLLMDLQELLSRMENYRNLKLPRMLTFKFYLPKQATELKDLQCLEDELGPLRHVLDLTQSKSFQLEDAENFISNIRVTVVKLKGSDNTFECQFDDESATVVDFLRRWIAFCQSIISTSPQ
Nature of the test: ELISA, coated cytokine.

Test [8] addresses T8, recombinant mouse IL-18 (MBL Cat#B004-5) (mouse, UniProt P70380 36-192).
T8 construct: also called mIL-18
T8 sequence (looked up): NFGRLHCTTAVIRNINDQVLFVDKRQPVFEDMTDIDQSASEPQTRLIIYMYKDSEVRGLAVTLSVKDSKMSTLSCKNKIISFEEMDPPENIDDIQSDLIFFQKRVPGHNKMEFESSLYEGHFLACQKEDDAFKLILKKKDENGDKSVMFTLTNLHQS
The test is described as follows: ELISA, coated cytokine.

In test [9] the target is T9, recombinant mouse IFN-γ (R&D Systems Cat#485-MT) (mouse, UniProt P01580 23-155).
T9 construct: also called mIFN-γ
T9 sequence (looked up): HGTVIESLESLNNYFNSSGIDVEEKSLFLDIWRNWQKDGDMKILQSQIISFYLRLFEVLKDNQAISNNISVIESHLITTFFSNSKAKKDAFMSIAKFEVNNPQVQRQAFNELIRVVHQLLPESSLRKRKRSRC
Nature of the test: ELISA, coated cytokine.

Test [10] addresses T10, recombinant rat IL-6 (R&D Systems Cat#506-RL-010) (rat, UniProt P20607 25-211).
T10 sequence (looked up): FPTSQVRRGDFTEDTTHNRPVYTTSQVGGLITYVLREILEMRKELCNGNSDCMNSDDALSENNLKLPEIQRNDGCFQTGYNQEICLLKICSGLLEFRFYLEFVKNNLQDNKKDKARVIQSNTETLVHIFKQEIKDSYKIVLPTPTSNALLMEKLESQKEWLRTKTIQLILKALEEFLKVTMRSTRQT
Nature of the test: ELISA, coated cytokine.

The target of test [11] is T11, recombinant rat TNFα (R&D Systems Cat#510-RT/CF) (rat, UniProt P16599 80-235).
T11 sequence (looked up): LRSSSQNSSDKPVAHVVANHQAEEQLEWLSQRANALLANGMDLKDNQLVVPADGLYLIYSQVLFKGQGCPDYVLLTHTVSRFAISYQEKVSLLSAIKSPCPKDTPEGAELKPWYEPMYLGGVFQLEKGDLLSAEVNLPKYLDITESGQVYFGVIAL
Nature of the test: ELISA, coated cytokine.

Test [12] addresses T12, recombinant human IL-17A (SEQ ID NO: 76) (human, UniProt Q16552 24-155, limits assumed).
T12 sequence: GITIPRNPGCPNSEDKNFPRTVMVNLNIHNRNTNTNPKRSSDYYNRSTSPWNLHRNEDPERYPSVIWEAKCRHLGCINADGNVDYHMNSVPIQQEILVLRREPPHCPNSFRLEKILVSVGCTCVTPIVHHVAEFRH
The test is described as follows: cell-based or functional assay.

Test [13] deals with T13, recombinant human IL-17A/F heterodimer (human, UniProt Q16552 24-155; Q96PD4 31-163, limits assumed).
T13 sequence (looked up) 1: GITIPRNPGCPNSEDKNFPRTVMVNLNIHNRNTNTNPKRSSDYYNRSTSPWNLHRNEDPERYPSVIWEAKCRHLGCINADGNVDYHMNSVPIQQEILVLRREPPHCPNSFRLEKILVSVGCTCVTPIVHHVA
T13 sequence (looked up) 2: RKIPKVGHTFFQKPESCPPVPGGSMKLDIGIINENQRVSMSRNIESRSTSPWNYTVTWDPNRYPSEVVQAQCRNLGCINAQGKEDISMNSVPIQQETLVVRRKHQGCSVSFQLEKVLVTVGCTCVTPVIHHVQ
The test is described as follows: cell-based or functional assay.

Test [14] concerns the target T14, recombinant human IL-17F (SEQ ID NO: 77) (human, UniProt Q96PD4 31-163).
T14 sequence: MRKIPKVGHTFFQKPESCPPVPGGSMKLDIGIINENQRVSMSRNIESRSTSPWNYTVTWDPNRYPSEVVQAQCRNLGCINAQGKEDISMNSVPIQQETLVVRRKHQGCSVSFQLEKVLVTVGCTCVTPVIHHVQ
The test is described as follows: cell-based or functional assay.

The target of test [15] is T15, recombinant mouse IL-17A (SEQ ID NO: 83) (mouse, UniProt Q62386 26-158).
T15 sequence: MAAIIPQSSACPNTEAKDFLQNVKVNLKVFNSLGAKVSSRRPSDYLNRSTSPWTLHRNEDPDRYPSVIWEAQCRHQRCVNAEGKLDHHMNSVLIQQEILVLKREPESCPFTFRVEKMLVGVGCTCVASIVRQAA
The test is described as follows: cell-based or functional assay.

B1: XAB4 (antibody, human IgG1, kappa, V domains shown)
VH: EVQLVESGGDLVQPGGSLRLSCAASGFTFSSYWMSWVRQAPGKGLEWVANIKQDGSEKYYVDSVKGRFTISRDNAKNSLYLQMNSLRAEDTAVYYCARDRGSLYYWGQGTLVTVSS
VL: AIQLTQSPSSLSASVGDRVTITCRPSQGINWELAWYQQKPGKAPKLLIYDASSLEQGVPSRFSGSGSGTDFTLTISSLQPEDFATYYCQQFNSYPLTFGGGTKVEIKR
notes: also called MB435 N56Q
Take B1: the binding result in test [1], in [2], in [3], in test [4], in test [5] and in [6] was “no binding (tested: 10 µg/ml)” throughout. Besides, the binding result in test [7], in test [8], in [9], in test [10] and in test [11] was “no binding (tested: 10 µg/ml)” in each case. Besides, the “IC50, hu-GRO-alpha secretion by BJ cells; stimulus IL-17A (30 pM) + TNF-α (6 pM)” value in [12] is 7 pM. Also, the “IC50, hu-GRO-alpha secretion by BJ cells; stimulus IL-17A (1 nM)” value in [12] was found to be 0.35 nM. Besides, in test [13], the “IC50, hu-GRO-alpha secretion by BJ cells; stimulus IL-17A/F (300 pM) + TNF-α (6 pM)” value was 0.1 nM. Further, the “IC50, hu-GRO-alpha secretion by BJ cells; stimulus IL-17A/F (3 nM)” value in test [13] was found to be 1.11 nM. Moreover, in [14], the “IC50, hu-GRO-alpha secretion by BJ cells; stimulus IL-17F (10 nM) + TNF-α (6 pM)” value was more than 3 µM. The “IC50, hu-GRO-alpha secretion by BJ cells; stimulus IL-17F (30 nM)” value in test [14] was more than 3000 nM. In addition, in [15], the “IC50, KC secretion by CMT-93 cells; stimulus mIL-17A (0.15 nM)” value was 7 nM.

B2: XAB1 (antibody, human IgG1, kappa, V domains shown)
VH: B1 VH
VL: B1 VL with N30I, W31S, E32A, Q56N
notes: human IgG1/kappa monoclonal antibody; also called parental XAB1; XAB1 IgG
For B2, the binding result in [1], in test [2], in test [3], in test [4], in [5] and in test [6] was “no binding (tested: 10 µg/ml)” in each case. Moreover, the binding result in [7], in test [8], in test [9], in [10] and in [11] was “no binding (tested: 10 µg/ml)” throughout. The “IC50, hu-GRO-alpha secretion by BJ cells; stimulus IL-17A (30 pM) + TNF-α (6 pM)” value in test [12] was determined as 0.72 nM. Also, the “IC50, hu-GRO-alpha secretion by BJ cells; stimulus IL-17A/F (300 pM) + TNF-α (6 pM)” value in [13] was determined as 6.22 nM. The “IC50, hu-GRO-alpha secretion by BJ cells; stimulus IL-17F (10 nM) + TNF-α (6 pM)” value in test [14] is more than 3 µM. In test [15], the “IC50, KC secretion by CMT-93 cells; stimulus mIL-17A (0.15 nM)” value worked out at 128 nM.
